From US20200024330A1

Columns and labels:
Experiment in all cases: cell-based or functional assay
[1] = biological target: HIV-1 94UG103 envelope protein (Env) on pseudovirus (HIV-1)
[2] = biological target: HIV-1 94UG114 envelope glycoprotein (Env) on pseudovirus (HIV-1)
[3] = biological target: HIV-1 97ZA012 envelope glycoprotein (Env) on pseudovirus (HIV-1)
[4] = biological target: HIV-1 Env of isolate 92UG005 (clade D) (HIV-1)
[5] = biological target: HIV-1 Env of isolate MGRM-D-002 (clade D) (HIV-1)
[6] = biological target: HIV-1 Env of isolate MGRM-D-014 (clade D) (HIV-1)
[7] = biological target: HIV-1 Env of pseudovirus MGRM-Chronic-B-002, clade B (HIV-1)
[8] = biological target: HIV-1 Env of pseudovirus NL43, clade B (HIV-1)
[9] = biological target: HIV-1 Env of pseudovirus THR0.18 (Acute), clade B (HIV-1)
[10] = biological target: HIV-1 Env of pseudovirus TRJ0.58 (Acute), clade B (HIV-1)
[11] = biological target: HIV-1 Env of pseudovirus VLGCB3, clade B (HIV-1)
[12] = biological target: HIV-1 IAVI-C22 envelope protein (Env) on pseudovirus (HIV-1)
[13] = biological target: HIV-1 LAVI_C22 Env (HIV-1)
[14] = biological target: HIV-1 MGRM-A-005 envelope glycoprotein (Env) (HIV-1)
[15] = biological target: HIV-1 MGRM-F1-016 Env (pseudovirus) (HIV-1)
[16] = biological target: HIV-1 MGRM-F1-017 Env (pseudovirus) (HIV-1)
[17] = biological target: HIV-1 MGRM-F1-020 Env (pseudovirus) (HIV-1)
[18] = biological target: HIV-1 VLGCA1 envelope glycoprotein (Env) on pseudovirus (HIV-1)
[19] = biological target: aMLV envelope protein on pseudovirus

Sequence of 1443_C16 (PG16) (TCN-116) (antibody) (VH): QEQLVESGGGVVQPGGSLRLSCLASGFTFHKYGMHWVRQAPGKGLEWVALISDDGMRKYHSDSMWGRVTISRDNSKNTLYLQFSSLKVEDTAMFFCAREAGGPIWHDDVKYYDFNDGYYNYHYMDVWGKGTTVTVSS
Sequence of 1443_C16 (PG16) (TCN-116) (antibody) (VL): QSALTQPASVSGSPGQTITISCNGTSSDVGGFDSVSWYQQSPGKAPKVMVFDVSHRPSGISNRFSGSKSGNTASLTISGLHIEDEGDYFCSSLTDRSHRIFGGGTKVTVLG

Substance	neutralization IC50 [1] [µg/mL]	IC50 (µg/ml), pseudovirus neutralization [2] [µg/mL]	IC50 (µg/ml), pseudovirus neutralization [3] [µg/mL]	IC50 (µg/ml), pseudovirus neutralization [4] [µg/mL]	IC50 (µg/ml), pseudovirus neutralization [5] [µg/mL]	IC50 (µg/ml), pseudovirus neutralization [6] [µg/mL]	IC50 (µg/ml), pseudovirus neutralization [7] [µg/mL]	IC50 (µg/ml), pseudovirus neutralization [8] [µg/mL]	IC50 (µg/ml), pseudovirus neutralization [9] [µg/mL]	IC50 (µg/ml), pseudovirus neutralization [10] [µg/mL]	IC50 (µg/ml), pseudovirus neutralization [11] [µg/mL]	neutralization IC50 [12] [µg/mL]	IC50 [13] [µg/mL]	IC50 (µg/ml), pseudovirus neutralization [14] [µg/mL]	IC50 (µg/ml), pseudovirus neutralization [15] [µg/mL]	IC50 (µg/ml), pseudovirus neutralization [16] [µg/mL]	IC50 (µg/ml), pseudovirus neutralization [17] [µg/mL]	IC50 (µg/ml), pseudovirus neutralization [18] [µg/mL]	neutralization IC50 [19] [µg/mL]
b12 (antibody)	3.54	> 50	> 50	> 50	> 50	> 50	0.86	0.17	3.62	> 50	0.15	3.6	7.64	3.64	> 50	> 50	> 50	> 50	> 50
1443_C16 (PG16) (TCN-116) (antibody)	0.008	> 50	2.55	> 50	0.01	0.003	3.06	0.02	1.34	1.16	0.4	0.0687	0.02	0.09	1.12	> 50	4.35	0.18	> 50
1495_C14 (PGC14) (antibody)	> 50	> 50	> 50	> 50	29	48	> 50	40	> 50	> 50	21	9.5	25	> 50	> 50	> 50	> 50	> 50	> 50
